Test system: K4 kissing-loop RNA reporter
Test: apparent KD of K4 kissing-loop reporter; higher = weaker reporter binding
Conditions: Eterna round: R107
Experimental: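 RNA-MaP round R107: designed RNA switches with theophylline, tryptophan, arginine or FMN aptamers are transcribed on-chip within common flanks. They are titrated with a labelled K4 kissing-loop RNA reporter in RNA-MaP buffer (100 mM Tris pH 7.5, 80 mM KCl, 4 mM MgCl2), without ligand or with the indicated ligand. Median apparent KD per design.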

[1] = input ligand: theophylline 20 uM
[2] = input ligand: tryptophan 2.4 mM
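Note: bound reporter read as fluorescence of individual clusters on recovered sequencing chips by microscopy, with normalized cluster intensities fitted with a binding model.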

Sequence | apparent KD of K4 kissing-loop reporter (input ligand: FMN 200 uM) [nM] | apparent KD of K4 kissing-loop reporter (input ligand: arginine 13.2 mM) [nM] | apparent KD of K4 kissing-loop reporter (input ligand: none) [nM] | apparent KD of K4 kissing-loop reporter [1] [nM] | apparent KD of K4 kissing-loop reporter [2] [nM]
UUGUCCGGGUGAUGGUCAUCACGUGGCGGGCGAGGACCGGUACGGCCGCCACUCGACUUUGCAGUGAUGUUGCAAACCGGACAAU [Exclusion - Tryptophan A (Freestyle 23)] | 231 | 174 | 192 | 224 | 210
UUGUUUUACUGAAGGAGCGGCAAUUGAUACGUAGAUAUAGUGAUGUUAUAUAAGAUAGAGAGCCAGGUAGGUCGCAGAUUUUUUU [ExArgB.V] | 164 | 157 | 144 | 185 | 118
UAUAUACAUUUAUUAAUUAAAGGUUCAGAAGGAGCGUGAAUUAACACAGGUAGGUCGCUGAGCGAGUGAUGUUCGCUAUAUGGAA [JR_ExcArginiA_Sub006] | 54.1 | 69.3 | 57 | 81 | 50.4
UCUAACAAAUCGGCCGCCACUGAAAUAACCCAGGAGUGAUGUUCCAUCGUCCUAGACUACUCUUCCAGGACCGGGAUCUGUGUUC [theeternabot_exclusion_KL_Trp_B_25] | 298 | 348 | 529 | 472 | 284
ACGUAGUUCUAGGAUACCAGCCAAGGCGCAGGACAAAAGUCCUGCGUCGCCAGUGAUGUUGGCCCUUGGCAGCCUAGAACUACGA [Omei KL Theo B Exc B v12] | 334 | 302 | 304 | 364 | 308
AACCCAUGACUGGAUACCAGACUAUACAUGCUGAGUGAUGUUUAGCGGAGUCAUCUCUCGGUCCCUUGGCAGCCAACGUCACGCG [theeternabot_sameState_KL_Theo_B_33] | 614 | 334 | 646 | 403 | 373
ACAGCGAGCAUUAACGCGCUCGCAGGUUGCAAGGAUAUAUUUCGUCAUAGAAGGUGCUAGACCAUAAGUGAUGUUUGUGGAUAUA [theeternabot_sameState_KL_FMN_A_16] | 576 | 396 | 503 | 448 | 525
AAAAUAAACCAGUGAUGUUGGUAACCAGAUACCAGCGACGAAAGUCGCCCUUGGCAGCUGUGGACGUACAAAAUAAGUACGUCCU | 218 | 264 | 257 | 223 | 199
UGGUUUGGAAGUGAUGUUUCUAUAAGUGAUACCAGACAAAAGAAAGUCCCUUGGCAGCACAAUGAUGCCAAGGAAACGGCAUGAU [#15 K4 Theophylline A Same State] | 179 | 164 | 174 | 157 | 150
UUUAGGAGCGGUGUUGAUUAGGGAGCGGAAGGAGCGCCGAUUAUGGCAGGUAGGUCGCCGGAAUGUAGUGAUGUUGCAUAGAGGG [ExArgA.V] | 214 | 186 | 185 | 154 | 166
UCGAGUUGACGAAAAGUCAACUCGUGAGAUACCAGUGACGAAAGUCACCCUUGGCAGCUCACUGCCAGUGAUGUUGGUGUAUAGA [#06 K4 Theophylline A Same State] | 856 | 840 | 1030 | 996 | 955
UACUAUAGUGAUGUUAUAGAUAAACCAGAUACCAGUGUGACAUAACACCCUUGGCAGCUGAUAAGGGAACAUAUGAAAACAUAUG [AstroSSTHeAED5.17] | 146 | 120 | 132 | 120 | 128
UACAUUGCAGUCUUCUUCGUCCUAGAUGACUAGGAUAUCAGGAAACUGAGAAGGAGUCACUGCAGUGAUGUUGCAGCUAGGACGA [KL-SSFMN-A9] | 110 | 118 | 110 | 121 | 105
GCAUCCAUGGCAGGAUAUAGGUUCGUGGAGUGAUGUUCCAUAGCCCGAGUGAUGUUCGUUAUCCACCUAGAAGGGCCAUGGAUGC [whbob_Ex_FMNB__2th212] | 270 | 205 | 246 | 211 | 210
AUUGAACAAGUGAUGUUUGUAUUUUCCGAAGGAGCGUCUAAUAAGACAGGUAGGUCGCGGUUUCUCUUAAUAAUCAGGUCUUUAA [JR_Nu_ExcArginiA_Sub021] | 279 | 287 | 279 | 292 | 238
UGGAGUUGACGAAAAGUCAACUCCUGAGAUACCAGUGACGAAAGUCACCCUUGGCAGCUCACUGGCAGUGAUGUUGCACGAUAAA [KL-SSTheo-A1] | 123 | 66.1 | 80 | 181 | 101

Sequence | apparent KD of K4 kissing-loop reporter (input ligand: FMN 200 uM) [nM] | apparent KD of K4 kissing-loop reporter (input ligand: arginine 13.2 mM) [nM] | apparent KD of K4 kissing-loop reporter (input ligand: none) [nM] | apparent KD of K4 kissing-loop reporter [1] [nM] | apparent KD of K4 kissing-loop reporter [2] [nM]
UAGGGCCCUGGAGGAUAUGAGUCUAGUGAUGUUAGGCGGUCCAUGCGCGUGGCGCGUUAUGCCCUUUUAGAAGGCCAGGGCCCUA [#2 Exclusion - FMN B Attempt #17 (HarryS)] | 119 | 72.8 | 99 | 99.3 | 92.4
AAGUAGCUCUCGGCCGCCACUCCUCAGUGAUGUUGAGAUAUUAAUUGCCAAUUGGCGUAUUUAAAGAGGACCGGGAGAGCUACAA [AK3 SS Tryptophan B] | 368 | 315 | 378 | 328 | 117
UGAUACCAGACUGAUACCAGCGAGUGAUGUUUGCUGAAAUCAGGGUCAAAGACCCUGUCUCGCCCUUGGCAGCAGUCUGGUAUCU [TheoBX 21 #SwitchBubble #StaticStem] | 735 | 601 | 754 | 223 | 688
GGCAGUGAUGUUGCCAGUGGCAGAUGCGAAGGAGCGCGGUGAGACGCAGGUAGGUCGCGCAUUGAAAUUGCUGUCACUAAAAUGC [#1] | 261 | 274 | 290 | 320 | 238
AGGCCCGGCCGAAAGGCCGGGCCAAGAGAUACCAGCAGCGAAAGCUGCCCUUGGCAGCUCACUUAGUGAUGUUAAGAAUAGAACA [SS Theo A Tesla 1] | 538 | 464 | 375 | 485 | 390
UGUGAACAAAAGUAGAGUGGACCACUAUAGCGAGGACCGGUACGGCCGCCACUCGUAUAUAAAUUCAGUGAUGUUGAAAAGAGCU [Exclusion Tryptophan A GF1] | 175 | 283 | 215 | 260 | 149
UGAUACCAGACGGCCGCCACUAGAGCUAGCAAAGCUAGCAAGUGAUGUUUGAGGAGUGAUGUUCCUAGGACCGGGUCUGGUAUCU [TrypBX 2 #Palindromic #SwitchBubble #StaticStem] | 103 | 85.5 | 96.2 | 86.8 | 39.9
AACCGAGGUAAUCCACAAAGAUAACAUGAUACCAGAUAUAUAAAUAUCCCUUGGCAGCAUGGCAUGAGUGAUGUUCAUGUGUCUU [KL-SSTheo-A10] | 441 | 325 | 460 | 269 | 356
AAUUAAUGUAUAGAUUAUAUACAUUAAUCAGAGGAUAUGCAUUGUUGCAGAAGGCUGAAUGCAGUGAUGUUGCAAUGGAAAUUUA [JR_SSFMNA_Sub004] | 53.8 | 201 | 181 | 376 | 120
UGGAGUUGACGAAAAGUCAACUCCUGAGAUACCAGUGACGAAAGUCACCCUUGGCAGCUCACUGCCAGUGAUGUUGGAACUAAAG [#02 K4 Theophylline A Same State] | 308 | 158 | 256 | 452 | 216
GGUAGUGCUAGCGAUACCAGUCAUAUCGCUCUGGAGUGAUGUUCCGGAACGUGCGGAGAAGACCCUUGGCAGCGCUUGACGGUGU [Exclusion Theophylline B GF5] | 218 | 234 | 318 | 251 | 298
GUAGCACUUGAUAGUGAUGUUAUCAAGGACAAGGAUAUCAUCUCAAUGAGAAGGUGUCCUUGAUAACAGCUACGGGAAUAUCCCA [Omei KL FMN A Exc D v1] | 103 | 267 | 288 | 280 | 312
AAGCAUUCUUCGGAAUGCAGACCCGCUGAGGAGGAUAUGACGAAAGUCAGAAGGCCUCAGUGAUGUUGAGGCCUCCUCAAUGGUC [Omei KL FMN A Exc A v1] | 138 | 135 | 187 | 173 | 171
AAGUUGAACUGAAGGAGCGAGAAAUAGAAUGUAAGAAUAUAUGCUAGUGAUGUUAGAAAUUCUCAGGUAGGUCGCAGUAAGUUUU [V2] | 363 | 418 | 474 | 407 | 285
GUGCGCGCGGCGGCCGCCACUCGCAUGAGAGUGAUGUUCUCACCGUGACCGUAAGGUCGCGGUGUGAGGACCGGGCCGGGCUGCG [#2 Same State - Tryptophan B Attempt #24 (HarryS)] | 181 | 114 | 207 | 59.5 | 270

— the supplement of paper PMC9170038
